The nature of the data set: self-splicing fitness, log relative to wild type (ln ratio); higher = more splicing; Tetrahymena group I intron in knt gene, E. coli kanamycin selection, DiMSum; sequences stand for … in CUCUCU…GGAGGGAAAAGUUAUCAGGCAUGCACCUGGUAGCUAGUCUUUAAACCAAUAGAUUGCAUCGGUUUAAAAGGCAAGACCGUCAAAUUGCGGGAAAGGGGUCAACAGCCGUUCAGUACCAAGUCUCAGGGGAAACUUUGAGAUGGCCUUGCAAAGGGUAUGGUAAUAAGCUGACGGACAUGGUCCUAACCACGCAGCCAAGUCCUAAGUCAACAGAUCUUCUGUUGAUAUGGAUGCAGUUCACAGACUAAAUGUCGGUCGGGGAAGAUGUAUUCUUCUCAUAAGAUAUAGUCGGACCUCUCCUUAAUGGGAGCUAGCGGAUGAAGUGAUGCAACACUGGAGCCGCUGGGAACUAAUUUGUAUGCGAAAGUAUAUUGAUUAGUUUUGGAGUACUCGUGGUCG
Put shortly: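 The eight P1ex-region nucleotides of an intron in the knt kanamycin-resistance gene on pET-22b(+) were all randomised and the library put into E. coli BL21(DE3). Six replicate transformations were grown overnight at 37°C or 30°C on LB agar with or without 25 μg/mL kanamycin, together with 100 μg/mL carbenicillin, 50 μM IPTG and 0.2% rhamnose. Colonies were pooled and amplicon-sequenced on an Illumina HiSeq 2500. Fitness from DiMSum is the error-weighted combination of wild-type-normalised replicate fold changes, kanamycin over none.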

± gives the uncertainty stated by the source.

Regarding GAGUAGCAAUAUUACGGAAA, the “self-splicing fitness (ln)” value by setting is: (30 °C) -3.15 ± 0.17; (37 °C) -2.03 ± 0.12.

On to GUGCAGCAAUAUUACGCAUC, for which the “self-splicing fitness (ln)” value (37 °C) is -3.79 ± 0.37.

For GCGGAGCAAUAUUACGCGGA, the “self-splicing fitness (ln)” value (30 °C) was -2.07 ± 0.33.

As for GUGAAGCAAUAUUACGUAAG, the “self-splicing fitness (ln)” value was -0.979 ± 0.088 (30 °C) and -0.0954 ± 0.13 (37 °C).

Consider GCGUAGCAAUAUUACGACAG, for which the “self-splicing fitness (ln)” value by setting is: (30 °C) -2.66 ± 0.48; (37 °C) -0.456 ± 0.44.

In the case of CUGGAGCAAUAUUACGGGUC, the “self-splicing fitness (ln)” value reads like this: (30 °C) -1.97 ± 0.16; (37 °C) -2.26 ± 0.34.

With UAAAAGCAAUAUUACGAGUC, the “self-splicing fitness (ln)” value was -3.45 ± 0.27 (30 °C) and -3.74 ± 0.39 (37 °C).

For the sequence GCCUAGCAAUAUUACGGUUC, the “self-splicing fitness (ln)” value (30 °C) was -1.02 ± 0.07 and the “self-splicing fitness (ln)” value (37 °C) is -1.45 ± 0.11.

For the sequence UUGGAGCAAUAUUACGACGU, where the note is “30 °C”, the “self-splicing fitness (ln)” value is -1.85 ± 0.48.

In the case of GAGUAGCAAUAUUACGGCCA, the “self-splicing fitness (ln)” value is -1.95 ± 0.18 (30 °C) and 0.281 ± 0.26 (37 °C).

For ACUGAGCAAUAUUACGGUGU, the “self-splicing fitness (ln)” value reads like this: (30 °C) -3.14 ± 0.13; (37 °C) -1.41 ± 0.1.

On to ACGAAGCAAUAUUACGUACU, for which the “self-splicing fitness (ln)” value (30 °C) is -0.484 ± 0.064 and the “self-splicing fitness (ln)” value (37 °C) is -0.0153 ± 0.089.

Turning to AUCCAGCAAUAUUACGCACG, the “self-splicing fitness (ln)” value is -1.68 ± 0.12 (30 °C) and -0.334 ± 0.13 (37 °C).

For the sequence AGAUAGCAAUAUUACGUAAU, the “self-splicing fitness (ln)” value by setting is: (30 °C) -1.52 ± 0.11; (37 °C) -0.657 ± 0.12.

Turning to GUUUAGCAAUAUUACGUGAC, the “self-splicing fitness (ln)” value (37 °C) was -0.596 ± 0.41.

As to CCUAAGCAAUAUUACGCAAC, the “self-splicing fitness (ln)” value was -3.08 ± 0.26 (30 °C) and -3.03 ± 0.4 (37 °C).

Regarding CUGGAGCAAUAUUACGUAUU, the “self-splicing fitness (ln)” value (30 °C) was -3.84 ± 0.31 and the “self-splicing fitness (ln)” value (37 °C) is -2.09 ± 0.27.

Consider UGGCAGCAAUAUUACGUGAG, for which the “self-splicing fitness (ln)” value was -0.544 ± 0.047 (30 °C) and 0.438 ± 0.077 (37 °C).

ACAUAGCAAUAUUACGUUGU: the “self-splicing fitness (ln)” value by setting is: (30 °C) -3.63 ± 0.15; (37 °C) -2.78 ± 0.2.

On to UAACAGCAAUAUUACGGAAC, for which the “self-splicing fitness (ln)” value reads like this: (30 °C) -3.85 ± 0.24; (37 °C) -4.18 ± 0.39.

Turning to GCGGAGCAAUAUUACGGUCG, the “self-splicing fitness (ln)” value runs as follows: (30 °C) -3.61 ± 0.26; (37 °C) -2.41 ± 0.21.

As to UUGGAGCAAUAUUACGCCCG, under “30 °C”, the “self-splicing fitness (ln)” value is -1.94 ± 0.45.

Consider GAUGAGCAAUAUUACGGGAU, for which, under “37 °C”, the “self-splicing fitness (ln)” value was -2.36 ± 0.42.

Turning to CGUUAGCAAUAUUACGCUAA, the “self-splicing fitness (ln)” value (37 °C) stood at 0.0733 ± 0.29.

UGGAAGCAAUAUUACGAGCG: the “self-splicing fitness (ln)” value reads like this: (30 °C) 0.103 ± 0.11; (37 °C) 0.127 ± 0.15.

For AAAAAGCAAUAUUACGAGAG, the “self-splicing fitness (ln)” value (30 °C) is -2.88 ± 0.11 and the “self-splicing fitness (ln)” value (37 °C) is -1.95 ± 0.1.

Turning to AAGUAGCAAUAUUACGACGC, the “self-splicing fitness (ln)” value (30 °C) was -0.792 ± 0.12 and the “self-splicing fitness (ln)” value (37 °C) turned out to be 0.204 ± 0.14.

Turning to CAAUAGCAAUAUUACGCAGU, the “self-splicing fitness (ln)” value is -3.56 ± 0.26 (30 °C) and -2.12 ± 0.21 (37 °C).

Consider AGCGAGCAAUAUUACGUAUG, for which the “self-splicing fitness (ln)” value by setting is: (30 °C) -3.68 ± 0.35; (37 °C) -3.3 ± 0.32.

For the sequence GGUGAGCAAUAUUACGACGA, the “self-splicing fitness (ln)” value was -1.32 ± 0.22 (30 °C) and -0.954 ± 0.34 (37 °C).

UCCUAGCAAUAUUACGACGC: the “self-splicing fitness (ln)” value is -2.35 ± 0.17 (30 °C) and -2.02 ± 0.2 (37 °C).

In the case of GAUAAGCAAUAUUACGCCCU, the “self-splicing fitness (ln)” value by setting is: (30 °C) -0.569 ± 0.13; (37 °C) 0.292 ± 0.15.

In the case of CAAUAGCAAUAUUACGACUG, the “self-splicing fitness (ln)” value was -0.326 ± 0.063 (30 °C) and -0.0987 ± 0.081 (37 °C).

On to UGACAGCAAUAUUACGACUA, for which the “self-splicing fitness (ln)” value was -0.585 ± 0.087 (30 °C) and 0.416 ± 0.1 (37 °C).

For UUUAAGCAAUAUUACGAUAA, the “self-splicing fitness (ln)” value is -0.773 ± 0.1 (30 °C) and 0.228 ± 0.13 (37 °C).

Turning to ACCGAGCAAUAUUACGUGAG, the “self-splicing fitness (ln)” value runs as follows: (30 °C) -2.27 ± 0.091; (37 °C) -0.997 ± 0.091.

In the case of GCGUAGCAAUAUUACGGAGU, the “self-splicing fitness (ln)” value by setting is: (30 °C) -2.88 ± 0.16; (37 °C) -1.44 ± 0.14.

For the sequence AGCGAGCAAUAUUACGUGCG, the “self-splicing fitness (ln)” value is -2.67 ± 0.094 (30 °C) and -0.964 ± 0.098 (37 °C).

Regarding AGCCAGCAAUAUUACGUCUC, the “self-splicing fitness (ln)” value by setting is: (30 °C) -3.95 ± 0.37; (37 °C) -2.78 ± 0.27.

ACAAAGCAAUAUUACGGUGU: the “self-splicing fitness (ln)” value is, setting by setting: (30 °C) -3.29 ± 0.14; (37 °C) -2.81 ± 0.15.

Take UGUUAGCAAUAUUACGCUGU: the “self-splicing fitness (ln)” value is -2.07 ± 0.23 (30 °C) and -0.914 ± 0.2 (37 °C).

Take GCGUAGCAAUAUUACGCAUU: the “self-splicing fitness (ln)” value (30 °C) was -2.88 ± 0.2 and the “self-splicing fitness (ln)” value (37 °C) was -2.58 ± 0.27.

With UGGUAGCAAUAUUACGGUUU, the “self-splicing fitness (ln)” value by setting is: (30 °C) -2.64 ± 0.17; (37 °C) -2.6 ± 0.23.

Turning to UGAUAGCAAUAUUACGCGCA, the “self-splicing fitness (ln)” value (30 °C) was -0.408 ± 0.091 and the “self-splicing fitness (ln)” value (37 °C) worked out at 0.2 ± 0.1.

Regarding CCUUAGCAAUAUUACGUGCG, the “self-splicing fitness (ln)” value runs as follows: (30 °C) -3.52 ± 0.21; (37 °C) -2.04 ± 0.17.

With UAGUAGCAAUAUUACGUGGG, the “self-splicing fitness (ln)” value is -3.26 ± 0.25 (30 °C) and -1.41 ± 0.17 (37 °C).

Regarding UCUGAGCAAUAUUACGCCCU, for the setting “37 °C”, the “self-splicing fitness (ln)” value is -1.62 ± 0.33.

ACUGAGCAAUAUUACGCGCG: the “self-splicing fitness (ln)” value was -1.14 ± 0.11 (30 °C) and -0.367 ± 0.12 (37 °C).

With AAAUAGCAAUAUUACGUGUU, the “self-splicing fitness (ln)” value is -1.72 ± 0.083 (30 °C) and -1.75 ± 0.11 (37 °C).

On to CGCGAGCAAUAUUACGUGUU, for which the “self-splicing fitness (ln)” value is, setting by setting: (30 °C) -3.1 ± 0.15; (37 °C) -2.75 ± 0.17.

As to UGCCAGCAAUAUUACGGAGG, the “self-splicing fitness (ln)” value was -3.51 ± 0.17 (30 °C) and -1.83 ± 0.17 (37 °C).

As to UAGAAGCAAUAUUACGCAAC, the “self-splicing fitness (ln)” value is -1.44 ± 0.18 (30 °C) and -2.33 ± 0.42 (37 °C).

As to AUAUAGCAAUAUUACGACCC, the “self-splicing fitness (ln)” value (30 °C) was -1.24 ± 0.28.

With CCCCAGCAAUAUUACGUUGA, the “self-splicing fitness (ln)” value runs as follows: (30 °C) -4.14 ± 0.13; (37 °C) -2.79 ± 0.12.

Regarding CACUAGCAAUAUUACGCAUC, the “self-splicing fitness (ln)” value is, setting by setting: (30 °C) -4.23 ± 0.43; (37 °C) -3.53 ± 0.37.

Consider CUACAGCAAUAUUACGCGCA, for which the “self-splicing fitness (ln)” value runs as follows: (30 °C) -3.72 ± 0.22; (37 °C) -2.12 ± 0.19.

In the case of GAUCAGCAAUAUUACGAUCU, the “self-splicing fitness (ln)” value by setting is: (30 °C) -4.13 ± 0.42; (37 °C) -1.8 ± 0.26.

On to UUUGAGCAAUAUUACGGAUC, for which the “self-splicing fitness (ln)” value by setting is: (30 °C) -3.24 ± 0.37; (37 °C) -2.24 ± 0.44.

Consider CAUGAGCAAUAUUACGGUGC, for which the “self-splicing fitness (ln)” value runs as follows: (30 °C) -3.35 ± 0.28; (37 °C) -3 ± 0.26.

AUAGAGCAAUAUUACGUCGG: the “self-splicing fitness (ln)” value is, setting by setting: (30 °C) -3.26 ± 0.14; (37 °C) -2.27 ± 0.17.

CUACAGCAAUAUUACGGAUU: the “self-splicing fitness (ln)” value reads like this: (30 °C) -3.46 ± 0.14; (37 °C) -2.5 ± 0.21.

Consider GAUUAGCAAUAUUACGUGUA, for which the “self-splicing fitness (ln)” value was -2.22 ± 0.13 (30 °C) and -1.63 ± 0.14 (37 °C).

Take UUUGAGCAAUAUUACGCAGG: the “self-splicing fitness (ln)” value runs as follows: (30 °C) -2.99 ± 0.21; (37 °C) -1.34 ± 0.18.

For the origin of these results see the supplement of paper PMC7877785.
